Test results: the supplement of paper PMC9233669
Variants at the floor of the assay were thinned out.

Columns and labels:
biotinyl-Val-oxazolone = assay: self-aminoacylation, catalytic enhancement (BVO) (fold over background); higher = more active; k-Seq, kA / k0A0; sequences stand for … in GGGAAUGGAUCCACAUCUACGAAUUC…UUCACUGCAGACUUGACGAAGCUG
How it was run: (§1)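 The uncatalyzed rate is the low-activity peak of a bimodal Gaussian fit, and catalytic enhancement is median kA divided by it. The kA values came from pseudo-first-order fits, with 1000 bootstraps, of per-sequence fraction reacted measured by streptavidin capture, triplicate qPCR and Illumina sequencing. Mutagenized RNA pools with a 21-nt variable region (0.43 μM) were reacted with each biotinyl-aminoacyl-oxazolone at 2–1250 μM in 50 μL HEPES/NaCl/KCl/MgCl2/CaCl2 buffer with 5% acetonitrile, pH 6.9–7.0, for 90 minutes at room temperature.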

biotinyl-Trp-oxazolone = assay: self-aminoacylation, catalytic enhancement (BWO) (fold over background); higher = more active; k-Seq, kA / k0A0; sequences stand for … in GGGAAUGGAUCCACAUCUACGAAUUC…UUCACUGCAGACUUGACGAAGCUG
How it was run: as §1

biotinyl-Leu-oxazolone = assay: self-aminoacylation, catalytic enhancement (BLO) (fold over background); higher = more active; k-Seq, kA / k0A0; sequences stand for … in GGGAAUGGAUCCACAUCUACGAAUUC…UUCACUGCAGACUUGACGAAGCUG
How it was run: as §1

biotinyl-Phe-oxazolone = assay: self-aminoacylation, catalytic enhancement (BFO) (fold over background); higher = more active; k-Seq, kA / k0A0; sequences stand for … in GGGAAUGGAUCCACAUCUACGAAUUC…UUCACUGCAGACUUGACGAAGCUG
How it was run: as §1

biotinyl-Ile-oxazolone = assay: self-aminoacylation, catalytic enhancement (BIO) (fold over background); higher = more active; k-Seq, kA / k0A0; sequences stand for … in GGGAAUGGAUCCACAUCUACGAAUUC…UUCACUGCAGACUUGACGAAGCUG
How it was run: as §1

biotinyl-Met-oxazolone = assay: self-aminoacylation, catalytic enhancement (BMO) (fold over background); higher = more active; k-Seq, kA / k0A0; sequences stand for … in GGGAAUGGAUCCACAUCUACGAAUUC…UUCACUGCAGACUUGACGAAGCUG
How it was run: as §1

Sequence | self-aminoacylation (biotinyl-Val-oxazolone) | self-aminoacylation (biotinyl-Trp-oxazolone) | self-aminoacylation (biotinyl-Leu-oxazolone) | self-aminoacylation (biotinyl-Phe-oxazolone) | self-aminoacylation (biotinyl-Ile-oxazolone) | self-aminoacylation (biotinyl-Met-oxazolone)
CUGCUUCAAACAAUCGGUCUA [Fam1A.1 aminoacylation ribozyme variant] | 1.34 | 38.8 | 2.18 | 80.1 | 1.3 | 1.33
AUUACUCUGGGCAUCGAGUGA [Fam2.1 aminoacylation ribozyme variant] | 3.11 | 7.68 | 6.57 | 41.2 | 3.71 | 6.39
CCACACUACUAGCAAUCGGUC [Fam1B.1 aminoacylation ribozyme variant] | 0.753 | 0.623 | 0.71 | 0.743 | 0.798 | 0.694
AAUACCCAGGUCAUCGAGUGA [Fam2.1 aminoacylation ribozyme variant] | 2.56 | 5.81 | 4.58 | 17.6 | 2.87 | 4.41
AAGUUUGUUAAUAGUCGCACG [Fam3.1 aminoacylation ribozyme variant] | 0.925 | 1.04 | 1.22 | 1.4 | 1.04 | 1.12
AUUCACCUAGGUCGUCGGGGG [Fam2.2 aminoacylation ribozyme variant] | 2.9 | 3.53 | 3.38 | 8.18 | 3.11 | 3.07
AUUACCCCGGUUAUCGAGUGA [Fam2.1 aminoacylation ribozyme variant] | 2.74 | 5.95 | 6.39 | 32.1 | 2.72 | 6.01
CUACGUCAAACAAUCGGUAUG [Fam1A.1 aminoacylation ribozyme variant] | 1.12 | 1.53 | 1.11 | 1.02 | 1.12 | 1.39
AUUCAGCUAGGUCAUCGGUUG [Fam2.2 aminoacylation ribozyme variant] | 0.865 | 1.25 | 1.07 | 5.67 | 0.882 | 1.16
AAGCUUGCUAAUUGUCGCAAG [Fam3.1 aminoacylation ribozyme variant] | 1.57 | 1.99 | 2.25 | 2.23 | 1.96 | 2.38
AUUCACCUAGGGCAUCGAGUG [Fam2.2 aminoacylation ribozyme variant] | 1.2 | 0.91 | 1.65 | 1.76 | 1.26 | 1.45
CUACACUUGAAGCAAUCGGUC [Fam1B.1 aminoacylation ribozyme variant] | 0.64 | 0.509 | 0.583 | 0.507 | 0.662 | 0.597
AUUCACCUAGGUCACCGGGUG [Fam2.2 aminoacylation ribozyme variant] | 3.55 | 4.63 | 6.44 | 32.2 | 3.51 | 4.95
AGAACCCUGGUCAUCGAGUGA [Fam2.1 aminoacylation ribozyme variant] | 21.2 | 56.9 | 58.5 | 354 | 19.6 | 57.5
AUUACCGUGGUCGUCGAGUGA [Fam2.1 aminoacylation ribozyme variant] | 1.06 | 0.591 | 1.18 | 2.81 | 1.2 | 1.09
AUUCAACUAGCUCAUCGGGUG [Fam2.2 aminoacylation ribozyme variant] | 2.45 | 1.82 | 2 | 15 | 2.04 | 1.74
AUUGCGCUGGUCAUCGAGUGA [Fam2.1 aminoacylation ribozyme variant] | 2.62 | 5.11 | 4.57 | 25.1 | 2.47 | 4.28
CUACUUCACACAUUCGGUCUG [Fam1A.1 aminoacylation ribozyme variant] | 1.1 | 1.69 | 1.36 | 1.72 | 1.16 | 1.13
CUACUUCAAAGAAUCGGUCCG [Fam1A.1 aminoacylation ribozyme variant] | 0.607 | 0.384 | 0.866 | 0.351 | 0.718 | 0.638
AUUACGCUGGUCAUCGCGUGA [Fam2.1 aminoacylation ribozyme variant] | 9.87 | 15.4 | 11.7 | 134 | 7.32 | 12.2
AUUCACCUAGUUCAACGGGUG [Fam2.2 aminoacylation ribozyme variant] | 1.73 | 2.46 | 2.88 | 17.1 | 1.65 | 2.42
AUGUUUGCUAAUAGUCUCAAG [Fam3.1 aminoacylation ribozyme variant] | 1.04 | 1.43 | 1.01 | 5.12 | 1.27 | 1.12
CCCCACUUCAAGCUAUCGGUC [Fam1B.1 aminoacylation ribozyme variant] | 1.71 | 2.01 | 1.12 | 2.16 | 1.42 | 1.05
AUACUUCAAACAUUCGGUCUG [Fam1A.1 aminoacylation ribozyme variant] | 1.1 | 1.11 | 1.09 | 1.19 | 1.18 | 1.09
AUAACCCUGGUCAUGGAGUGA [Fam2.1 aminoacylation ribozyme variant] | 2.48 | 4.89 | 4.08 | 14.6 | 2.6 | 4.2
AUAACCCUGGUCAUCGAGUGG [Fam2.1 aminoacylation ribozyme variant] | 3.38 | 6.21 | 7.76 | 20.8 | 3.4 | 8.46

Sequence | self-aminoacylation (biotinyl-Val-oxazolone) | self-aminoacylation (biotinyl-Trp-oxazolone) | self-aminoacylation (biotinyl-Leu-oxazolone) | self-aminoacylation (biotinyl-Phe-oxazolone) | self-aminoacylation (biotinyl-Ile-oxazolone) | self-aminoacylation (biotinyl-Met-oxazolone)
AAGAUUGGUAAUAGUCGCAAG [Fam3.1 aminoacylation ribozyme variant] | 1.59 | 2.54 | 2.02 | 1.65 | 2.04 | 1.75
AAUUUUGCUAAUAUUCGCAAG [Fam3.1 aminoacylation ribozyme variant] | 1.5 | 2.15 | 1.57 | 1.5 | 1.92 | 1.55
AUUCACCUAGGUUAUCUGGUG [Fam2.2 aminoacylation ribozyme variant] | 2.95 | 4.49 | 5.96 | 35.2 | 3.02 | 5.29
AAUACCCUGGUCAUCGAGAGA [Fam2.1 aminoacylation ribozyme variant] | 0.65 | 0.752 | 0.673 | 0.87 | 0.653 | 0.552
UUUCACCUCGGUCAUCGGGUG [Fam2.2 aminoacylation ribozyme variant] | 4.79 | 6.19 | 5.28 | 38.3 | 3.61 | 3.79
CUAGUUCAAACAAUCGGGCUG [Fam1A.1 aminoacylation ribozyme variant] | 1.42 | 2.72 | 1.79 | 2.64 | 1.54 | 1.4
AUUCACCGAGGUCAUCGGCUG [Fam2.2 aminoacylation ribozyme variant] | 2.26 | 1.93 | 2.38 | 12.4 | 2.29 | 2.26
AUUACCCUGGUCCUCCAGUGA [Fam2.1 aminoacylation ribozyme variant] | 3.79 | 9.12 | 8.6 | 49.6 | 4.44 | 7.44
AAGUUUGCGAAUAGUCGCCAG [Fam3.1 aminoacylation ribozyme variant] | 1.78 | 1.62 | 1.29 | 9.03 | 1.74 | 1.8
CAACUCCAAACAAUCGGUCUG [Fam1A.1 aminoacylation ribozyme variant] | 1.14 | 3.05 | 1.1 | 6.95 | 1.31 | 1.36
CUACUACAAACAAUCGAUCUG [Fam1A.1 aminoacylation ribozyme variant] | 0.719 | 0.665 | 0.593 | 0.759 | 0.808 | 0.52
CAACACUUCAAGUAAUCGGUC [Fam1B.1 aminoacylation ribozyme variant] | 0.899 | 7.22 | 1.19 | 10.4 | 0.979 | 1.05
AUUCACGUAUGUCAUCGGGUG [Fam2.2 aminoacylation ribozyme variant] | 5.58 | 7.42 | 9.38 | 73.5 | 5.2 | 8.47
AACACCCUGGUCAUCGAGUGA [Fam2.1 aminoacylation ribozyme variant] | 4.39 | 8.34 | 6.79 | 7.58 | 4.52 | 7.5
AUAGCCCUGGUCAUCGAGUGA [Fam2.1 aminoacylation ribozyme variant] | 7.53 | 21.6 | 20.3 | 78.5 | 8.62 | 19.9
CUACUUCAUACAAUCGGUCUA [Fam1A.1 aminoacylation ribozyme variant] | 0.703 | 0.555 | 0.68 | 0.751 | 0.835 | 0.926
CUACUUCAAUCAAUCGGGCUG [Fam1A.1 aminoacylation ribozyme variant] | 1.24 | 7.13 | 1.38 | 8.36 | 1.41 | 1.31
AUUCACCUCGGCCAUCGGGUG [Fam2.2 aminoacylation ribozyme variant] | 5.61 | 6.78 | 7.44 | 56.7 | 4.23 | 6.8
AUUCACCGAGGUCAACGGGUG [Fam2.2 aminoacylation ribozyme variant] | 3.27 | 5.14 | 8.52 | 36.9 | 3.52 | 5.75
CUACUUCGAACAAUCGGUUUG [Fam1A.1 aminoacylation ribozyme variant] | 0.717 | 0.404 | 0.526 | 0.591 | 0.649 | 0.581
AUUACCCUGGUCAUCUACUGA [Fam2.1 aminoacylation ribozyme variant] | 0.856 | 0.358 | 0.676 | 0.799 | 0.925 | 0.663
AAGUUUGUUAAUAGUCACAAG [Fam3.1 aminoacylation ribozyme variant] | 0.941 | 0.701 | 0.749 | 1.16 | 1.06 | 0.982
AUUGACCUAGGUCAUCGGCUG [Fam2.2 aminoacylation ribozyme variant] | 1.7 | 1.95 | 1.76 | 1.19 | 1.6 | 1.58
CAACUCUUCAAGCAAUCGGUC [Fam1B.1 aminoacylation ribozyme variant] | 1.04 | 6.16 | 1.33 | 9.86 | 1.05 | 1.16
CUUCACCUAGGUGAUCGGGUG [Fam2.2 aminoacylation ribozyme variant] | 3.9 | 4.93 | 4.03 | 20.6 | 3.56 | 3.91
